The text below walks through data of patent US7407939B2, “Protein kinase inhibitors comprising ATP mimetics conjugated to peptides or peptidomimetics” (CureGenics Ltd., priority 2001, dated 2008).

The target in one assay is T1, PKA (Bos taurus, UniProt P00517).
T1 construct: purchased Promega
The assay can be described thus: In vitro PKA kinase activity assay (kemptide / SPA beads).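 For all read-outs here: Cell-free assay of purified PKA catalytic subunit phosphorylating the 7-mer kemptide substrate, run in MOPS buffer with magnesium acetate and BSA, with blank wells lacking enzyme.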 Type of assay: biochemical. Particulars: for PKA-kinase Assay 1, % inhibition of kinase activity / PKA-kinase Assay 2, % inhibition of kinase activity: 1 μM compound concentration.

Another assay concerns the target T2, PKB (Homo sapiens, UniProt P31749).
T2 construct: His; HA; made in house
The assay can be described thus: PKB in vitro kinase activity assay (soluble His-HA-PKB / SPA bead screening). In kind it is biochemical. Particulars: for PKB-kinase (spa) Assay 1, % inhibition of kinase activity / PKB-kinase (spa) Assay 2, % inhibition of kinase activity: 1 μM compound concentration.

Where two headings read alike, the source gives them in different places. *1 amine or outer side, *2 acyl side, *3 side chain or, on linkers, in order; H or OH if unused. Where a SMILES comes first, the peptide text is derived from it. Where no end group is shown, it is not given here. Side-chain parts run from the residue outwards. [ ]: non-standard residue; d: D form. The star is where a group is joined. X1 = 5‑aminoethylsulfonamide isoquinoline, O=S(=O)(NCCN*)c1cccc2cnccc12; Isoquinoline5sulfonyl = O=S(=O)(c1cccc2cnccc12)*; X2 = O=C(OCC(Cc1ccccc1)N[*:1])[*:2]; Ethylenediamine = C(CN[*:2])N[*:1]; hLeu = CC(C)CC[C@H](N)C(=O)O; Orn = NCCC[C@H](N)C(=O)O; Dab = NCC[C@H](N)C(=O)O; Abu = CC[C@H](N)C(=O)O; Dap = NC[C@H](N)C(=O)O Bounds are passed on as bounds.

T2 sequence (P31749 whole entry, species assumed): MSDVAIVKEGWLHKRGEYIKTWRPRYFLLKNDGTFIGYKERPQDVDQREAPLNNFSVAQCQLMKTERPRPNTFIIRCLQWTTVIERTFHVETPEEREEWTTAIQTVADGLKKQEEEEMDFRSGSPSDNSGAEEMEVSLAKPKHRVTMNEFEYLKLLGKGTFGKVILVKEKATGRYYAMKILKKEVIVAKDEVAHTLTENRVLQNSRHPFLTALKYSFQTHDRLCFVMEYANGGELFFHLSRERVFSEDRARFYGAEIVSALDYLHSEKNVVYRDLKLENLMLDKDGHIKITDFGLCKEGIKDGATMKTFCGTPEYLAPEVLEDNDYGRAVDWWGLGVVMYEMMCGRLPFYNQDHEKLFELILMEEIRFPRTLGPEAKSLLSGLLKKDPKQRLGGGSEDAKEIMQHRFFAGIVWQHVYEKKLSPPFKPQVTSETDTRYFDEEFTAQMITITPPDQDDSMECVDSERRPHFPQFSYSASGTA
Experimental for PKA: PKA enzyme was purchased from Promega. PKA activity is assayed on a 7-mer peptide, LRRASLG, known as kemptide. The assay is carried out in 96-well plates, in a final volume of 50 μl per well. The reaction mixture includes various concentrations of the inhibitor, 50 mM MOPS, 10 mM MgAc, 0.2 mg/ml BSA, 10 μM ATP, 20 μM Kemptide and 1 μCi γ^32P ATP. Reaction is started with addition of 15 μl of the catalytic subunit of PKA diluted in 0.1 mg/ml BSA, 0.4 U/well. Two blank wells without enzyme are included in every assay. The plates are agitated continuously at 30° C. for 10′ or at 27° C. for 1 hour. Reaction is stopped by addition of 12 μl 200 mM EDTA. 20 μl aliquots of the assay mixture are spotted onto 2 cm^2 phosphocellulose strips (e.g. Whatman P81) and immersed in 75 mM phosphoric acid (10 ml per sample). The phosphocellulose strips are washed 6 times. Washes are done in continuous swirling for 5 minutes, last wash is in acetone. After air drying the strips, radiation is measured by scintillation spectrometry.
Screening compounds for PKA inhibition was performed in 96-well plate using SPA beads, as described below for PKB with the following modifications; The enzyme substrate was 5 μM biotinylated-kemptide peptide (biotin-[sequence]). The kinase buffer was 50 mM MOPS pH 7, 0.2 mg/ml BSA, 10 mM Magnesium acetate. PKA (0.4 unit) diluted in 0.1 mg/ml BSA was added to each well.
Experimental for PKB: The enzyme activity measurement is performed as described in the assay for PKA.
Kinase reaction was carried out in final volume of 50 μl. […] The kinase reaction was started by adding 10 μl of 2 μM cold ATP and 0.25 μCi of [γ^33P]-ATP in kinase buffer. The plates were incubated at 27° C. for 1 hr. At the end of the incubation the reaction was stopped by 200 μl of PBS containing 0.1% Triton X-100, 5 mM EDTA, 1 mM ATP and 0.3 mg/ml of Streptavidin-coated SPA bead (Amersham Pharmacia Biotech). After 15 min incubation at room temperature, the reaction mixtures were filtered using Packard GF/B 96-well plates. The plates were washed twice with 2M NaCl and 1% orthophosphoric acid followed by ethanol wash and 1 h air-dry. The radioactivity was counted using microplate counter Packard Top Count

As for “60020-11: Arg-Pro-Arg-Orn-Glu(5-aminoethylsulfonamide isoquinoline)-Orn-Phe (RPR[Orn]E(X1)[Orn]F)”, in the assay with PKA, the “PKA-kinase Assay 1, % inhibition of kinase activity” value (“PKA-kinase Assay 1, % inhibition” for short) came to 95% and the “PKA-kinase Assay 2, % inhibition of kinase activity” value (shortened to “PKA-kinase Assay 2, % inhibition”) was determined as 96%. Also, in the assay with PKB, the “PKB-kinase (spa) Assay 1, % inhibition of kinase activity” value (“PKB-kinase (spa) Assay 1, % inhibition” below) amounted to 58% and the “PKB-kinase (spa) Assay 2, % inhibition of kinase activity” value (“PKB-kinase (spa) Assay 2, % inhibition” below) turned out to be 52%.
On the same counts, the results for “60020-43: Arg-Pro-Arg-Orn-Glu(Gly-5-aminoethylsulfonamide isoquinoline)-Orn-Phe (RPR[Orn]E([Gly-X1])[Orn]F)” are 96%, 96%, 48% and 62%.
For the compound “60020-9: Arg-Pro-Arg-Orn-Glu(5-aminoethylsulfonamide isoquinoline)-Dab-Phe (RPR[Orn]E(X1)[Dab]F)”, in the assay with PKA, the “PKA-kinase Assay 1, % inhibition” value is reported as 96% and the “PKA-kinase Assay 2, % inhibition” value is reported as 97%. Moreover, in the assay with PKB, the “PKB-kinase (spa) Assay 1, % inhibition” value turned out to be 71% and the “PKB-kinase (spa) Assay 2, % inhibition” value is given as 57%.
On the same counts, the results for “60020-2: Arg-Pro-Arg-Dap-Glu(5-aminoethylsulfonamide isoquinoline)-Dab-Hol (RPR[Dap]E(X1)[Dab][hLeu])” are 94%, 95%, 47% and 48%.
For the compound `C[C@@H](O)[C@H](NC(=O)[C@H](CCCNC(=N)N)NC(=O)[C@@H]1CCCN1C(=O)[C@@H](N)CCCNC(=N)N)C(=O)N[C@@H](CC(=O)NCCNS(=O)(=O)c1cccc2cnccc12)C(=O)N[C@@H](CO)C(=O)N[C@@H](Cc1ccccc1)C(N)=O` [compound 6130] (H-RPRTD([Ethylenediamine-Isoquinoline5sulfonyl])SF-NH2; N-terminus assumed), the IC50 at PKA (chimeric PTR compounds (peptide conjugated to isoquinoline small molecule), read-out: PKA IC50) is 0.053 µM; at PKB (chimeric PTR compounds (peptide conjugated to isoquinoline small molecule), read-out: PKB IC50), 9.5 µM.
On to “60020-10: Arg-Pro-Arg-Orn-Glu(5-aminoethylsulfonamide isoquinoline)-Dab-Hol (RPR[Orn]E(X1)[Dab][hLeu])”, for which, in the assay with PKA, the “PKA-kinase Assay 1, % inhibition” value turned out to be 92% and the “PKA-kinase Assay 2, % inhibition” value was found to be 94%. Further, in the assay with PKB, the “PKB-kinase (spa) Assay 1, % inhibition” value turned out to be 45% and the “PKB-kinase (spa) Assay 2, % inhibition” value is recorded as 48%.
In the case of `CC(C)CC[C@H](NC(=O)[C@H](CN)NC(=O)[C@H](CO)NC(=O)[C@@H](NC(=O)[C@H](CCCNC(=N)N)NC(=O)[C@@H]1CCCN1C(=O)[C@@H](N)CCCNC(=N)N)[C@@H](C)O)C(N)=O` [TY 60002-96, Arg-Pro-Arg-Thr-Ser-Dap-Hol] (H-RPRTS[Dap][hLeu]-NH2; N-terminus and C-terminus assumed), the IC50 at PKA (Table 3, linear 7-mer peptides, read-out: Activity PKA) is > 40 µM; at PKB (Table 3, linear 7-mer peptides, read-out: Activity PKB), 5 µM.
Consider `CC[C@H](NC(=O)[C@H](CO)NC(=O)[C@@H](NC(=O)[C@H](CCCNC(=N)N)NC(=O)[C@@H]1CCCN1C(=O)[C@@H](N)CCCNC(=N)N)[C@@H](C)O)C(=O)NC(COC(=O)NCCNS(=O)(=O)c1cccc2cnccc12)Cc1ccccc1` (some centres unmarked) [PTR 6013] (H-RPRTS[Abu][X2]-{Ethylenediamine-Isoquinoline5sulfonyl}), for which the IC50 at PKA (Table 2, chimeric compounds, read-out: Activity PKA) worked out at 1 µM; at PKB (Table 2, chimeric compounds, read-out: Activity PKB) it was 3 µM.
